In article PMC6880876:

Target: end-binding protein 3 (EB3), full-length, recombinant (UniProt Q9UPY8)
Assay: ELISA

Sequence of UniProt Q9UPY8 (Q9UPY8 whole entry): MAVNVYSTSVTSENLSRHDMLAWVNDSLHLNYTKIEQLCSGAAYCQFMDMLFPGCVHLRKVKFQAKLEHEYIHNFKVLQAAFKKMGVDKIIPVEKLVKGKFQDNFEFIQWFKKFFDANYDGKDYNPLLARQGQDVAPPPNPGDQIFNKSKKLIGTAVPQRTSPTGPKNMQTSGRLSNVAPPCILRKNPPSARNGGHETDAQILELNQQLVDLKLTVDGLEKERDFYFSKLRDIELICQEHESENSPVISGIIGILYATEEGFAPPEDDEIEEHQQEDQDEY

Kd: 0.022 µM
Substance: full-length WT tau (0N4R) (from UniProt P10636-6 1-383) (natural protein)
